Experimental data published in the Human Domainome abundance scans (Beltran et al. 2025).

B1: Retinoic acid receptor beta, residues 85 to 161; numbered along this chain, P10826 (parent)
chain: YKPCFVCQDKSSGYHYGVSACEGCKGFFRRSIQKNMIYTCHRDKNCVINKVTRNRCQYCRLQKCFEVGMSKESVRND

Variants of: B1
Test: abundance fitness (aPCA) (normalised: wild type 0, dead -1); higher = more abundant; growth selection in yeast, the domain comes from the species named
Conditions: Homo sapiens

Abundance fitness of substitutions, site by site:
V67: Y -0.645; L -0.084; Q -0.035; K 0.017; G -0.161; H -0.354; F -0.054; M -0.063; E -0.282; R -0.291; S -0.059; T -0.178; W -0.636
G68: C -0.698; V -0.81; P -0.738; N -0.338; H -0.743; E -0.763; F -0.204; M -0.77; W -0.779; L -0.807; Q -0.698; K -0.392; Y -1.05; D -0.663; S -0.595; A -0.804; R -0.681; I -0.95; T -0.687
S73: E 0.091; G 0.017; Y -0.231; M 0.092; P 0.002; W -0.091; V 0.001; K 0.131; L 0.088; H -0.061; D 0.133; Q -0.043; A 0.1; R 0.016; T -0.106; F -0.016
V74: Q -0.012; P -0.068; Y -0.297; L -0.018; H -0.13; T -0.012; S -0.035; R -0.188; M -0.027; I 0.036; N -0.067; K -0.219; C 0.003; F -0.064; W -0.14; D 0.094; G -0.081
E72: C -0.075; P -0.101; W -0.271; F -0.337; R -0.151; H -0.117; T -0.004; G -0.128; K -0.191; S -0.037; D 0.127; L -0.237; Q -0.134; N 0.04; M -0.098; V -0.163; I -0.184; A -0.113
S70: F -0.111; G -0.184; Y -0.291; H 0.022; R -0.053; V 0.038; I 0.262; Q -0.009; P -0.304; T 0.067; L 0.071; K 0.078; C -0.076; D -0.085; W -0.417; A -0.047; E 0.039; M -0.115
M69: N -0.725; W -0.235; V -0.591; R -0.741; F -0.406; D -0.498; A -0.81; T -0.515; Y -0.588; K -0.983; C -0.31; G -0.813; E -0.751; P -0.917; I -0.142
R75: K -0.018; L 0.102; T -0.02; N 0.073; E 0.124; P 0.039; S -0.045; V 0.046; H 0.078; A 0.137; F -0.187; Q 0.163; D -0.051; G 0.09; W 0.065; C 0.175; Y 0.118
K71: H -0.24; S -0.005; E 0.103; L -0.027; Y -0.216; C -0.148; A -0.027; M -0.104; P -0.154; T 0.067; N -0.04; I -0.078; F -0.189; Q -0.007; D -0.085; V -0.151; W -0.139; G -0.004; R -0.102
N76: C -0.105; P 0.146; Q 0.058; I -0.149; G -0.048; R -0.039; L 0.013; F -0.012; S 0.148; H -0.144; D 0.018; E 0.194; A 0.084; K 0.01; M -0.061
